A short description of the data set: yeast display, Sf9 membrane polyspecificity reagent, FACS + sequencing; frameworks hold sequencing errors. Summed up:
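Sorting gates, low and high (top ~1%), were placed on anti-HA fluorescence to track expression and on streptavidin fluorescence to track reagent binding. A clone's polyreactivity label is taken from the gate it came out of. The reagent was 10% biotinylated, detergent-solubilized Sf9 membrane, applied for 1 hour at 4 °C to galactose-induced yeast display cells.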
Regarding “QVQLVESGGGLVQAGGSLRLSCAASGFIVTPYTMGWYRQAAGKERELVAAITDGSSTYYADSVKGRFTISRDNAKNTDYLQMNSLKPEETAVYYFNADGKPPYISWLYDYWGHGTQVTVSS”, the “polyreactivity (PSR sort gate)” value is “low polyreactivity”.

In the case of “QVQLVESGGGLVQAGGSLRLSCAASGFIYFGNAMGWYRQAPGKERELVAAINSNGSSTYYADSVKGRFTISRDNAKNTVYFLMNSLQPEDTAVYYCAKKISVHEGAWPSNPDGDYWGQGTQVTVSS”, the “polyreactivity (PSR sort gate)” value is “low polyreactivity”. The result for “QVQLVESGGGLVQAGGSLRLSCAASGFIYKYAMGWYRPAPGKERELVAAISQNGGSTRYADSVKGRFTISRDNAKNTVYLQMNSLKPEDTAVYYCNTGVARGYKYWGQGTQVTVSS” reads “high polyreactivity”; that for “QVQLVESGGGLVQAGGSLRLSCAASGFIYNTKGWYRQAPGKERELVAAISRSGGSTDYADSVKGRFTISRDNAKNTVYLQMTSLKPEDTAVYYCAARRPYRDGYDYWGQGTQVTVSS”, “high polyreactivity”; that for “QVQLVESGGGLVQAGGSLRLSCAASGFIYPRNTMGWYRQAPGKERELVAAITWIGGRTYYADSVKGRFTISRDNAKNTVYLQMNSLKPEDTAVYYCAADYSVFYDEDYWGQGTQVTVSS”, “low polyreactivity”. The result for “QVQLVESGGGLVQAGGSLRLSCAASGFIYRLNAMGWYRQAPGKERELVAAISTYADSVKGRFTFSRDNAKTTVYLQMNSLKPEDTAVYYCAKDYTDSYAYRTGFDYWGQGTQVTVSS” reads “low polyreactivity”; that for “QVQLVESGGGLVQAGGSLRLSCAASGFIYRVYGMGWYRQAPVKERELLAAISGRGGSTYYADSVKGRFTISRDNANNTVYLQMHSLKPEDTAVYYCYTLDIRTYSKYDYWGQGTQVTVSS”, “high polyreactivity”; that for “QVQLVESGGGLVQAGGSLRLSCAASGFIYWYYAMGWYRQAPGKERELVAAISGTGGTTYYADSVKGRFTISRDNAKNTVYLQMKSLKPEDTAVYYCNDRYDSRRTAIGYDYWGQGTQVTGSS”, “low polyreactivity”. On to “QVQLVESGGGLVQAGGSLRLSCAASGFIYYGYAMGWYRQAPGKEMELVAAITSGGSTTYADSVKGRFTISRDNAKNTVYLQMNSLKPVDTAVYYGAASVCREVGWGQGTQVTVSS”, for which the “polyreactivity (PSR sort gate)” value is given as “high polyreactivity”. For “QVQLVESGGGLVQAGGSLRLSCAASGFLFRYYTMGWYRQAPGKERDLVAVITRGGSTYYADSVKGRFTISRDNAKNTVYLQMNSLKPEDTAVYYCAAVRTKVWRGPEMDYWGQGTQVTVSS” the value was “high polyreactivity”; for “QVQLVESGGGLVQAGGSLRLSCAASGFNFDANPLGWYRQAAGKERELVAAISWSGGSTYYADSVKGRFTISRDYANNSVYLQMNTLKPEDTAVYYCAADILGYSYEYWGQGTQVTVSS”, “high polyreactivity”; for “QVQLVESGGGLVQAGGSLRLSCAASGFNFDENAMGWYRQAPGKEREFYAAISISGSSTYADSVKGRFTISRDNAKNTVYLQMNCLKPEDTAVYFCAASYTTEYTGDGHSGVGDGDYWGQGTQVTVSS”, “low polyreactivity”.

For “QVQLVESGGGLVQAGGSLRLSCAASGFNFDFYAMGWYRQAPGKEREMVAAISKNDGTTYFAYSVKGRFTISRDNAKNTVYLQMNSLKPEDTAVYFCAAESGYPVYTYVSSGVYWGQGTQVTVSS”, the “polyreactivity (PSR sort gate)” value is on record as “low polyreactivity”. The result for “QVQLVESGGGLVQAGGSLRLSCAASGFNFDYNAMGWYRQAPGKERELVAAISWSGGRTYYADSVKGRFTISRDNAKNTVYLQMNSLKPEDTAVYYCAARARNYPPYNYWGQGTQVTVSS” reads “high polyreactivity”; that for “QVQLVESGGGLVQAGGSLRLSCAASGFNFNKNAMGWYRQAPGKERELVAAISGTGGSTYYADSVKVRFTISRDNAKNTVYLQMNSLKPEDTAVYFCASRRYRQFSTGGQPGYYWGQGTLVTVSS”, “high polyreactivity”. For “QVQLVESGGGLVQAGGSLRLSCAASGFNFRYYTMGWYRQAPGTERELVAVITSGGTTYYADSVKGRFTISRDNAKNTVYLQMNSLKPEDTAVYYCAADYRPRLYGVGVDYWGQGTQVTVSS” the value was “low polyreactivity”; for “QVQLVESGGGLVQAGGSLRLSCAASGFNFSPYAMGWYRQAPGKERELVAAISSSGGSTYYADSVKGRFTISRDNAKNTVYLQMNSLKPEDTAVYYCNAAGGYRTSPSDYWGQGTQVTVSS”, “high polyreactivity”; for “QVQLVESGGGLVQAGGSLRLSCAASGFNFSYYAMGWYRHAPGKEWELVAAISRSGGSTYYADSVKGRFTISRDNAKNTVYLQMNSLKPEDTAVYYCAKRIKDRSGEAYVGLYYWGQGTQVTVSS”, “high polyreactivity”. The result for “QVQLVESGGGLVQAGGSLRLSCAASGFNFYYYAMGWYRQAPGKERELVAVLTESGSSTYYADSVKGRFTISRDNAKNTVYLQMNSLKPEDSAVYYCNADFWPFTGKYDSVHLDYWGQATQVTVSS” reads “low polyreactivity”; that for “QVQLVESGGGLVQAGGSLRLSCAASGFNIASYDMGWYRQAPGKERELVAAISKGGGRTYYADSVKGRFTISRDIAKNTVYLQMNSLKPEDTAVDYCAAEYRGYLHYHFQYLFDYWGQGTQVNVSS”, “low polyreactivity”; that for “QVQLVESGGGLVQAGGSLRLSCAASGFPFPDYAMGWYRQAPGKERELVAGISSTGDSTYYADSVKGRFTISRDNAKNTVYLQMNSLKPEDTAVYYCNAAQERPIIILFSKYDYWGQGTQVTVSS”, “low polyreactivity”. On to “QVQLVESGGGLVQAGGSLRLSCAASGFSFRVYTMGWYRQAPGKERELVAAISYRGGRTYYADTVKGRFTISRDNAKNNVYLQMNSLKPEDSALYYCAATAIYPSAWRMDYWGQGTLVTVSS”, for which the “polyreactivity (PSR sort gate)” value was “high polyreactivity”.

As for “QVQLVESGGGLVQAGGSLRLSCAASGFSIAYYAMGWYRQEPGKERELVAAISRRGGSTYYADSVKGRFTISRDNAKNTVYLQMNSLKPEDTAVYYCAKAHYLSDYNYWGQGTQVTVSS”, the “polyreactivity (PSR sort gate)” value is “high polyreactivity”. The result for “QVQLVESGGGLVQAGGSLRLSCAASGFTASYAMGWYRQAPWKERELVATINSGGGSTRYADSVKGRFTISRDNAKNTVYLQMNSLKPEDTAVYYCAKRWRRNFDYWGQGTQVTVSS” reads “high polyreactivity”; that for “QVQLVESGGGLVQAGGSLRLSCAASGFTCSRYAMGWYRQAPGKERELVAAISSGGSTNYADSVKGRFTISRDNAKNTVYLQMNSLKPEDTAVYYCAVTWRYKGYYWGQGTQVTVSS”, “high polyreactivity”. For “QVQLVESGGGLVQAGGSLRLSCAASGFTCVPYAMGWYSQAPGKARELVAAITGGGSTYYADSVKGRFTISRDNAKNTVYFQMHSLKPEDTAVYYCAAREARSHRYSNRVYYWGQGTQVTVSS” the value was “high polyreactivity”. With “QVQLVESGGGLVQAGGSLRLSCAASGFTCVRYAMGWYRPAPGKEREFVASISARGGNTFYADSVKGRFTISRDHAKNTVYLQMNSLKPEDTAVYYCAKRGPYGTGYGYWGQGTQLTVSS”, the “polyreactivity (PSR sort gate)” value is “high polyreactivity”. For “QVQLVESGGGLVQAGGSLRLSCAASGFTCYNYAMGWYRQAPGKERELVAAITSSGTSTYYADSVKGRFTISRDNAKNTVYLQMNSLKPEDTAVYYCATYVAYHRGYSTYDHWGQGSQVTVSS” the value was “low polyreactivity”; for “QVQLVESGGGLVQAGGSLRLSCAASGFTFAAYAMGWYRQAPGKERELVAAISWSGGSTRYADCVKGRYTISRDNAKNTVYLQKNSLIPEDTAVYYCNAVGYRVGIYSSKGDYWGQGTQVTVSS”, “high polyreactivity”. The result for “QVQLVESGGGLVQAGGSLRLSCAASGFTFAFYAMGWYRQAPGKERELVAAISWDGVTTYYADSVKGRFTISRDNAKNTVYLQMNSLKPEDTAVYYCAADYPDYAGSFWPSGMYYWGQGTQVTVSS” reads “low polyreactivity”. With “QVQLVESGGGLVQAGGSLRLSCAASGFTFAFYAMGWYRQAPGKERELVAAITGSGGSTYYADSVKGRFTISRDNAKNTVYLQMNSLKPEDTAVYYCAADLVVDYEWYDYWGQGTQVTVSS”, the “polyreactivity (PSR sort gate)” value was “high polyreactivity”. For “QVQLVESGGGLVQAGGSLRLSCAASGFTFAGYVLGWYRKAPGKDRELVAAISNSGGRTYADSVKGRFTISRDNAKNTVYLQMNSLKPEDTAVYYCAKKPGGFSQASRVDYDYWGQGTQVTVSS” the value was “low polyreactivity”; for “QVQLVESGGGLVQAGGSLRLSCAASGFTFAKYAMGWYRQAPGKERELVAAISSSGGRTYYADSVQGRFTISRDNAKNTVYLQMNSLKPEDTAVYYCAADFSGPFDYWGQGTQVTVSS”, “high polyreactivity”.

On to “QVQLVESGGGLVQAGGSLRLSCAASGFTFALYAMGWYRQAPGKEREVVASIDNGVSTNYADSVKGRFTISRDNAKNTVYLQMNSLKPEDTAVYYCAKGPGYGFYKLLSYDSWGQGTQVTVSS”, for which the “polyreactivity (PSR sort gate)” value was “low polyreactivity”. The result for “QVQLVESGGGLVQAGGSLRLSCAASGFTFAQYAMGWYRQAPGKERELVATISRRGGSTYYADSVKGRFTISRDNAKNTVYLQMNSLKPEDTAVYYCTAAKYLYRHGFLSAGDMYYWGQGTQVTVSS” reads “high polyreactivity”; that for “QVQLVESGGGLVQAGGSLRLSCAASGFTFARNAMGWNRQAPGKERELVASITQRGGSTNYADSVKGRFTISRDNAKNTVYFQLNSLKPEDTAVYYCNKASQLYYIQGTYSYGYWGQGSQVTVSS”, “low polyreactivity”.

With “QVQLVESGGGLVQAGGSLRLSCAASGFTFARNAMGWYRQAPGKERELVAAINRSGGSTYYADSVKGRFTISRDNAKNTVYLQMNSLKPEDTAVYYCNKPRLAQQGYDYWGQGTQVTVSS”, the “polyreactivity (PSR sort gate)” value was “high polyreactivity”. For “QVQLVESGGGLVQAGGSLRLSCAASGFTFARNAMGWYRQAPGKEWELGATISTSGGSTYYADSVKGRFTISRDNAKNTVYLQMNSLKPEDSAVYYFAASYWKGYRRDYWGQGTQVTVSS” the value was “low polyreactivity”; for “QVQLVESGGGLVQAGGSLRLSCAASGFTFATNAMGWYRQAPGTERELVAAISSRGGSTYYADSVKGRFTISRDNAKNTVYLQMNSLKPEDTAVYYCNAYRRLGGYDYWGQGTQVTVSS”, “high polyreactivity”. “QVQLVESGGGLVQAGGSLRLSCAASGFTFATYAMGWYRQAPGKERELVAAISKSGGSTYYADSVKGRFTISRDNAKNTVYLQMNSLKPEDTAVYYCAKRRSVRYDYWGQGTQVTVSS”: the “polyreactivity (PSR sort gate)” value was “high polyreactivity”. For “QVQLVESGGGLVQAGGSLRLSCAASGFTFAVYVMGWYRQAPGKERELVAAISRSGGSTYYADSVKGRFTISRDNAKNTVYLQMNSLKPEDTAVYYCNARVWAKYDYWGQGTQVTVSS” the value was “high polyreactivity”.
